Assay results taken from patent US20100311648A1.

How the values were obtained:
[1] = molecular target: melanocortin-1 receptor (mouse (B-16 melanoma cells); in some instances human (hMC1-R)) (UniProt Q01727); assay: [I125]-NDP-α-MSH competition, MC1-R membranes
[2] = molecular target: human melanocortin-4 receptor (human) (UniProt P32245); assay: cell-based or functional assay
[3] = molecular target: human melanocortin-4 receptor (human) (UniProt P32245); assay: [I125]-NDP-α-MSH competition, hMC4-R HEK-293 membranes

Sequence of melanocortin-1 receptor (mouse (B-16 melanoma cells); in some instances human (hMC1-R)) (Q01727 whole entry): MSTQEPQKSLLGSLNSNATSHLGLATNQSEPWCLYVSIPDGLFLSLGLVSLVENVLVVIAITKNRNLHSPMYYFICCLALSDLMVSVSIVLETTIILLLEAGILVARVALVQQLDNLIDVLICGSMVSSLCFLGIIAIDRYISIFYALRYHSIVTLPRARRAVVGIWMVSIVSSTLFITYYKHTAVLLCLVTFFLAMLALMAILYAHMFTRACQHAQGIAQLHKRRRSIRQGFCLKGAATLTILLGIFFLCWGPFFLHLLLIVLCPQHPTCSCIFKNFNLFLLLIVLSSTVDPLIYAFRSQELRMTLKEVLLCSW
Sequence of human melanocortin-4 receptor (human) (P32245 whole entry): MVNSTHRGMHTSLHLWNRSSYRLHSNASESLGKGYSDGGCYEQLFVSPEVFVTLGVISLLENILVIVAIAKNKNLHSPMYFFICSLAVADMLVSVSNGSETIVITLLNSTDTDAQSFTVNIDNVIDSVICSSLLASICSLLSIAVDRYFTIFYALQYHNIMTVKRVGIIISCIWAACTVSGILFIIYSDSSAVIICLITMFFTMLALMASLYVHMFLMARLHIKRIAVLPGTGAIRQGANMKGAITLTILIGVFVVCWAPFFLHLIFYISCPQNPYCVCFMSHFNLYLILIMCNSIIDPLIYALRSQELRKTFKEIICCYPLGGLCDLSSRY

Substance	Ki [1] [nM]	EC50, cAMP, 0.1 ng/mL Doxycycline [2] [nM]	EC50, cAMP, 10 ng/mL Doxycycline [2] [nM]	Intrinsic Activity, cAMP, 0.1 ng/mL Doxycycline [2] [%]	Intrinsic Activity, cAMP, 10 ng/mL Doxycycline [2] [%]	Ki [3] [nM]
Ac-Arg-cyclo(Glu-Dab(Acetyl)-D-Phe(2-Cl)-Arg-Trp-Orn)-NH2 (peptide)	30	5	0.3	41	98	11
Ac-Arg-cyclo(Glu-Dab-D-Phe(2,4-diCl)-Arg-Trp-Orn)-NH2 (peptide)	0.5		0.245	11	100	0.055
Ac-Arg-cyclo(Glu-Dab-D-Phe(2-F)-Arg-Trp-Orn)-NH2 (peptide)	0.8	0.09	0.035	91	89	0.7
Ac-Arg-cyclo(Glu-Dab-D-Phe(3,4-diCl)-Arg-Trp-Orn)-NH2 (peptide)	0.2		0.38	5	92	0.055
Ac-Arg-cyclo(Glu-Dab-D-Phe(3-CF3)-Arg-Trp-Orn)-NH2 (peptide)	9	8	0.4	16	93	0.95
Ac-Arg-cyclo(Glu-Dab-D-Phe(3-CN)-Arg-Trp-Orn)-NH2 (peptide)	43	37	2	29	100	33
Ac-Arg-cyclo(Glu-Dab-D-Phe(3-F)-Arg-Trp-Orn)-NH2 (peptide)	2	0.45	0.17	77	94	2
Ac-Arg-cyclo(Glu-Dab-D-Phe(4-CN)-Arg-Trp-Orn)-NH2 (peptide)	5	0.3	0.135	48	100	0.833
Ac-Arg-cyclo(Glu-Dab-D-Phe(4-Cl)-Arg-Trp-Orn)-NH2 (peptide)	0.3	0.07	0.16	28	100	0.08
Ac-Arg-cyclo(Glu-Dab-D-Phe(4-F)-Arg-Trp-Orn)-NH2 (peptide)	0.5	0.065	0.06	83	90	0.25
Ac-Arg-cyclo(Glu-Dab-D-Phe(4-OMe)-Arg-Trp-Orn)-NH2 (peptide)	0.15	0.15	0.16	28	97	0.25
Ac-Arg-cyclo(Glu-Hyp-D-Phe(2-Cl)-Arg-Trp-Orn)-NH2 (peptide)	143	1	0.153	41	98	1
Ac-Arg-cyclo(Glu-Hyp-D-Phe(3-Cl)-Arg-Trp-Orn)-NH2 (peptide)	430		0.55	6	90	2
Ac-Arg-cyclo(Glu-Hyp-D-Phe(4-CN)-Arg-Trp-Orn)-NH2 (peptide)	880		0.5	8	93	2
